The target in experiment [1] is T1, CCR7^−O (CCR7 T37/38/42A) (Homo sapiens, UniProt P32248, T37A/T38A/T42A).
T1 construct: CCR7 contains a 24-residue long signal peptide cleaved of from the mature protein; expressed in transfected cells; host or cells: CHO cells, transient transfection
T1 sequence (P32248 25-378 T37A/T38A/T42A): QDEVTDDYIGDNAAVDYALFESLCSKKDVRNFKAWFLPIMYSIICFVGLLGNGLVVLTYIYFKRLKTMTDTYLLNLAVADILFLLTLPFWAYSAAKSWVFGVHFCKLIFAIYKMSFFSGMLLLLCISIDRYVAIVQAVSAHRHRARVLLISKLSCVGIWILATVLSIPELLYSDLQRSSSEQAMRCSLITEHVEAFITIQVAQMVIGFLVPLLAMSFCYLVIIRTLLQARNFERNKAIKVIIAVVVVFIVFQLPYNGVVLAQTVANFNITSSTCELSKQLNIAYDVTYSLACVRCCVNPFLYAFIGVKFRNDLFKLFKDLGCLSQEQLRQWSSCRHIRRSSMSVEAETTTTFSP
The experiment is described as follows: Gαi signaling, BRET cAMP assay, CCR7 lacking N-terminal O-glycosylation sites. It counts as cell-based. How it is done: O-glycosylation deficient CCR7 was generated from WT through Quick change PCR using the following primers: […]
(§1) For cAMP assays, adherent CHO cells were transfected using lipofectamine while suspension cells were transfected using the FectoPro method. Cells were seeded in a 6-well plate, either 500,000 (adherent cells) or 200,000 (suspension cells) cells/well. The next day the cells were transiently transfected with vectors encoding the human CCR7 and CAMYEL sensor (cAMP sensor using YFP-Epac-RLuc) in a 1:5 ratio using lipofectamine (6 µl/well) or FectoPro (4 µl/well). Lipofectamine transfections were terminated by changing to 2 ml fresh cultivation medium after 5 h, while Fectopro transfection was terminated after 3 h by adding 2.5 ml fresh cultivation medium and 2 µl FectoPro Boost reagent per well. The cells were incubated under standard cultivation conditions overnight. For β-arrestin recruitment assays, cells were transfected with CCR7 and vectors expressing a Renilla luciferase arrestin3 fusion protein and membrane-SH3-citrine protein. The cells were then resuspended in PBS w/glucose and seeded in 96-well white iso plates (~ 25,000 cells/well). Coelenterazine (bioluminescence substrate) was added to a final conc. of 5 µM. After 10 min, cells were stimulated with varying ligand concentrations for a total of 40 min. Forskolin was added to each well 5 min after ligand addition to reach a final conc. of 5 µM. The plates were kept in the dark at all times. Emission signal from Rluc and eYFP was measured using the Envision machine at 530 and 480 nm and the BRET signal determined as the ratio between (eYFP/Rluc).

Experiment [2] addresses T2, human CCR7 (Homo sapiens, UniProt P32248).
T2 construct: CCR7 contains a 24-residue long signal peptide cleaved of from the mature protein; expressed in transfected cells; host or cells: CHO cells (CHO-K1, CHO suspension WT, GAG-deficient and 5xKO GalNAc-T knockout lines), transient transfection
T2 sequence (P32248 25-378): T1 sequence (P32248 25-378 T37A/T38A/T42A) with A13T, A14T, A18T
The experiment is described as follows: β-arrestin recruitment, BRET-based assay at CCR7. It counts as cell-based. How it is done:
as §1

In experiment [3] the test system is CCR7-N (CCR7 N36/292A). The experiment is described as follows: Gαi signaling, BRET cAMP assay, CCR7 lacking N-glycosylation sites. It counts as cell-based, human. To be noted: CCL21 alone or CCL21 + 10 µM TP71-111, CHO cells, n = 3. How it is done: For cAMP assays, adherent CHO cells were transfected using lipofectamine while suspension cells were transfected using the FectoPro method. Cells were seeded in a 6-well plate, either 500,000 (adherent cells) or 200,000 (suspension cells) cells/well. The next day the cells were transiently transfected with vectors encoding the human CCR7 and CAMYEL sensor (cAMP sensor using YFP-Epac-RLuc) in a 1:5 ratio using lipofectamine (6 µl/well) or FectoPro (4 µl/well). Lipofectamine transfections were terminated by changing to 2 ml fresh cultivation medium after 5 h, while Fectopro transfection was terminated after 3 h by adding 2.5 ml fresh cultivation medium and 2 µl FectoPro Boost reagent per well. The cells were incubated under standard cultivation conditions overnight. […] Emission signal from Rluc and eYFP was measured using the Envision machine at 530 and 480 nm and the BRET signal determined as the ratio between (eYFP/Rluc).
Supplementary file 18_2021_3930_MOESM4_ESM.png: Supplementary file4 C21TP boosting ability is not dependent on N-glycosylation sites. […] Signaling was measured in CHO cells quantified using the BRET based cAMP assay. […] Statistical significance was calculated using two-way ANOVA with Tukey’s correction for multiple test. *P<0.05, **P <0.01, ***P<0.001 (PNG 328 KB)

Experiment [4] addresses T2, human CCR7. Nature of the experiment: Gαi signaling, BRET-based cAMP (CAMYEL) assay at CCR7 in CHO cells. Type of experiment: cell-based. As to conditions: for effect of C21TP on CCL21^Tailless activity (Gαi signaling): CCL21^Tailless (CCL21 1–79) + 10 µM TP71-111, n = 4. The protocol: Human DCs were cultured in X-vivo 15 medium with 2% human AB serum and glutamine. CHO-K1 pgsB-618 ATCC® CRL2241™ [24] and CHO-K1 cells were grown in RPMI with 10% FBS and Penicillin/Streptomycin. HS^−/− (CHO EXTL 2/3 −/−), CS^−/− (CSGALNACT 1/2^−/− CHSY1^−/−), 5xKO (GalNAc-T1, 2, 4, 7 and 10 −/−) and WT CHO suspension cells were grown in suspension in 1:1 of EX-Cell CD CHO fusion media and Balanced CD CHO growth A medium supplemented with 2% glutamine and Penicillin/Streptomycin. Cells were kept in a humidified incubator at 37 °C, 5% CO2.
as §1

Where a chain is given by its changes, count along the chain named. Entries after “also recorded” stand apart in the source; their conditions may differ.

For the molecule “TP71-111: free CCL21 C-terminal peptide, residues 71–111 (41 amino acids, positively charged) (PSPQKPAQGCRKDRGASKTGKKGKGSKGCKRTERSQTPKGP; UniProt O00585 94-134, looked up, fragment)”, the “boosting of CCL19 signaling by C21TP at CCR7^−O” value in experiment [1] (CCL19 + 10 µM TP71-111, CCR7^−O vs WT CCR7) was “diminished”. Also, in experiment [2] (CCL21^Tailless (CCL21 1–79) + 10 µM TP71-111, n = 4), the “effect of C21TP on CCL21^Tailless β-arrestin recruitment” value is “small but significant decrease”. In experiment [3], the “effect of removing extracellular N-glycosylation sites on signaling or boosting (CCR7-N)” value is given as “no effect”. In experiment [4] (CCL21 + 10 µM TP71-111, CHO 5xKO vs WT), the “fold reduction of C21TP boosting effect on CCL21 signaling in 5xKO vs WT” value was determined as 25 fold. For the same molecule, the “effect of C21TP on CCL21^Tailless activity (Gαi signaling)” value in experiment [4] is given as “not improved”; in experiment [4] (listed as C21TP) it was “did not affect CCL21^Tailless potency”. Moreover, the “boosting of CCL21-induced CCR7 signaling in GAG KO cells” value in experiment [4] (CHO GAG KO (pgsB 618) vs WT, 10 µM TP71-111, n = 3) is recorded as “tendency that boosting by C21TP (TP71-111) was increased”. Also, the “boosting of CCL21-induced CCR7 signaling in GAG-deficient cells” value in experiment [4] (CHO HS−/−, CS−/− and GAG KO (pgsB 618) cells, 10 µM TP71-111, n = 3) is on record as “In none of the GAG-deficient cells did we measure any decrease”. Further, the “boosting of CCL19-induced CCR7 signaling in GAG-deficient cells” value in experiment [4] (CHO HS−/−, CS−/−, GAG KO cells, 10 µM TP71-111, n = 3, listed as C21TP) was “similarly unaffected by the lack of GAGs; also recorded: independent of cell GAG status”. In addition, the “fold boost of CCL21 signaling activity via CCR7” value in experiment [4] (in the presence of C21TP) is reported as ~ 100 fold.

B1: CCL21: full-length chemokine (residues 1–111), CCR7 ligand, from R&D Systems (protein, UniProt O00585 24-134, looked up)
C-C motif chemokine 21: SDGGAQDCCLKYSQRKIPAKVVRSYRKQEPSLGCSIPAILFLPRKRSQAELCADPKELWVQQLMQHLDKTPSPQKPAQGCRKDRGASKTGKKGKGSKGCKRTERSQTPKGP
With B1, the “chemokine activity on its own at CCR7^−O” value in experiment [1] (no peptide, CCR7^−O vs WT CCR7) is “almost unaffected; also recorded: without affecting basal CCR7 activation via CCL19 and CCL21”. In addition, in experiment [2] (no peptide, n = 4), the “pEC50, β-arrestin recruitment, chemokine alone” value was “undetectable”. For the same molecule, the “effect of removing extracellular N-glycosylation sites on signaling or boosting (CCR7-N)” value in experiment [3] is recorded as “no effect”. Besides, the “pEC50, Gαi signaling, chemokine alone” value in experiment [4] (no peptide, CHO cells, forskolin 5 µM, n = 4) worked out at 6.46.

For the origin of these results see paper PMC8558179, “The C-terminal peptide of CCL21 drastically augments CCL21 activity through the dendritic cell lymph node homing receptor CCR7 by interaction with the receptor N-terminus” (Cellular and Molecular Life Sciences: CMLS, 2021).
